{"source": "paper PMC5431095", "key": {"[1]": {"assay": "fluorescence microscopy, NuMA volume at spindle poles", "settings": "control: DMSO"}, "[2]": {"assay": "confocal microscopy of metaphase cells", "settings": "glycan lost; control: wt NuMA-GFP in NuMA-depleted HeLa"}, "[3]": {"assay": "Galectin-3 over NuMA fluorescence intensity", "settings": "glycan lost; control: wt NuMA-GFP in NuMA-depleted HeLa"}}}
{"substance": "NuMA (Nuclear Mitotic Apparatus protein): Ac-5SGlcNAc", "values": [{"measurement": "localisation_or_trafficking", "setting": "[1]; glycan lost", "value": "changes"}]}
{"substance": "NuMA (Nuclear Mitotic Apparatus protein): GalNAcα-O-benzyl", "values": [{"measurement": "localisation_or_trafficking", "setting": "[1]; glycan lost", "value": "no change"}]}
{"substance": "NuMA (Nuclear Mitotic Apparatus protein): S1844A", "values": [{"measurement": "localisation_or_trafficking", "setting": "[2]", "value": "changes"}, {"measurement": "other: Galectin-3 recruitment to spindle poles", "setting": "[3]", "value": "decreases"}]}
{"substance": "NuMA (Nuclear Mitotic Apparatus protein): swainsonine", "values": [{"measurement": "localisation_or_trafficking", "setting": "[1]; glycan changed form", "value": "no change"}]}
